Measured values: patent US20220242957A1 (MARENGO THERAPEUTICS, published 2022)

B1: BIM0552 (antibody, human IgG1, lambda)
heavy: EVQLVESGGGLVQPGGSLRLSCAASGFTFSNDEMNWIRQAPGKGLEWVSYISSRSSTIYYADAVKGRFTISRDNARNSLYLQMNSLRAEDTAVYYCARGVDGDFSFDYWGQGTLVTVSSASTKGPSVFPLAPSSKSTSGGTAALGCLVKDYFPEPVTVSWNSGALTSGVHTFPAVLQSSGLYSLSSVVTVPSSSLGTQTYICNVNHKPSNTKVDKRVEPKSCDKTHTCPPCPAPELLGGPSVFLFPPKPKDTLMISRTPEVTCVVVDVSHEDPEVKFNWYVDGVEVHNAKTKPREEQYNSTYRVVSVLTVLHQDWLNGKEYKCKVSNKALPAPIEKTISKAKGQPREPQVCTLPPSREEMTKNQVSLSCAVKGFYPSDIAVEWESNGQPENNYKTTPPVLDSDGSFFLVSKLTVDKSRWQQGNVFSCSVMHEALHNHYTQKSLSLSPGK
light: QLVLTQPPSVSGAPGQRVTISCTGSSSNIGAGYDVHWYQQLPGTAPKLLIYGNSNRPSGVPDRFSGSKSGTSASLAITGLQAEDEADYYCQSYDSSLSEEVFGGGTKLTVLGQPKANPTVTLFPPSSEELQANKATLVCLISDFYPGAVTVAWKADGSPVKAGVETTKPSKQSNNKYAASSYLSLTPEQWKSHRSYSCQVTHEGSTVEKTVAPTECS
chain: not shown
notes: Heavy chain entry ends in X = K or absent; also called multispecific molecule 80; aCSF1R BI117 half-arm antibody
B2: BIM0543 (antibody, human IgG1, lambda)
heavy: EVQLVESGGGLVQPGGSLRLSCAASGFTFSNDEMNWIRQAPGKGLEWVSFISGGSSTIYYADAVKGRFTISRDNARNSLYLQMNSLRAEDTAVYYCARGVDGDFSFDYWGQGTLVTVSSASTKGPSVFPLAPSSKSTSGGTAALGCLVKDYFPEPVTVSWNSGALTSGVHTFPAVLQSSGLYSLSSVVTVPSSSLGTQTYICNVNHKPSNTKVDKRVEPKSCDKTHTCPPCPAPELLGGPSVFLFPPKPKDTLMISRTPEVTCVVVDVSHEDPEVKFNWYVDGVEVHNAKTKPREEQYNSTYRVVSVLTVLHQDWLNGKEYKCKVSNKALPAPIEKTISKAKGQPREPQVCTLPPSREEMTKNQVSLSCAVKGFYPSDIAVEWESNGQPENNYKTTPPVLDSDGSFFLVSKLTVDKSRWQQGNVFSCSVMHEALHNHYTQKSLSLSPGK
light: QLVLTQPPSVSGAPGQRVTISCTGSSSNIGAGYDVHWYQQLPGTAPKLLIYGNSNRPSGVPDRFSGSKSGTSASLAITGLQAEDEADYYCQSYDSSLSEEVFGGGTKLTVLGQPKANPTVTLFPPSSEELQANKATLVCLISDFYPGAVTVAWKADGSPVKAGVETTKPSKQSNNKYAASSYLSLTPEQWKSHRSYSCQVTHEGSTVEKTVAPTECS
chain: not shown
notes: Half-arm (monovalent) anti-human CSF1R antibody, three chains as BIM0542; Heavy chain entry ends in X = K or absent; also called multispecific molecule 71; aCSF1R BI117 C9-R2A half-arm antibody
B3: BIM0542 (antibody, human IgG1, lambda)
heavy: EVQLVESGGGLVQPGGSLRLSCAASGFTFSNDEMNWIRQAPGKGLEWVSYISSGSSTIYYADAVKGRFTISRDNARNSLYLQMNSLRAEDTAVYYCARGVDGDFSFDYWGQGTLVTVSSASTKGPSVFPLAPSSKSTSGGTAALGCLVKDYFPEPVTVSWNSGALTSGVHTFPAVLQSSGLYSLSSVVTVPSSSLGTQTYICNVNHKPSNTKVDKRVEPKSCDKTHTCPPCPAPELLGGPSVFLFPPKPKDTLMISRTPEVTCVVVDVSHEDPEVKFNWYVDGVEVHNAKTKPREEQYNSTYRVVSVLTVLHQDWLNGKEYKCKVSNKALPAPIEKTISKAKGQPREPQVCTLPPSREEMTKNQVSLSCAVKGFYPSDIAVEWESNGQPENNYKTTPPVLDSDGSFFLVSKLTVDKSRWQQGNVFSCSVMHEALHNHYTQKSLSLSPGK
light: QLVLTQPPSVSGAPGQRVTISCTGSSSNIGAGYDVHWYQQLPGTAPKLLIYGNSNRPSGVPDRFSGSKSGTSASLAITGLQAEDEADYYCQSYDSSLSEEVFGGGTKLTVLGQPKANPTVTLFPPSSEELQANKATLVCLISDFYPGAVTVAWKADGSPVKAGVETTKPSKQSNNKYAASSYLSLTPEQWKSHRSYSCQVTHEGSTVEKTVAPTECS
chain: not shown
notes: Heavy chain entry ends in X = K or absent; also called multispecific molecule 70; aCSF1R BI117 C5-R2A half-arm antibody
B4: BIM0546 (antibody, human IgG1, lambda)
heavy: EVQLVESGGGLVQPGGSLRLSCAASGFTFSNDEMNWIRQAPGKGLEWVSYISSRSSTIYYADAVKGRFTISRDNARNSLYLQMNSLRAEDTAVYYCARGVDGDFSFDVWGQGTLVTVSSASTKGPSVFPLAPSSKSTSGGTAALGCLVKDYFPEPVTVSWNSGALTSGVHTFPAVLQSSGLYSLSSVVTVPSSSLGTQTYICNVNHKPSNTKVDKRVEPKSCDKTHTCPPCPAPELLGGPSVFLFPPKPKDTLMISRTPEVTCVVVDVSHEDPEVKFNWYVDGVEVHNAKTKPREEQYNSTYRVVSVLTVLHQDWLNGKEYKCKVSNKALPAPIEKTISKAKGQPREPQVCTLPPSREEMTKNQVSLSCAVKGFYPSDIAVEWESNGQPENNYKTTPPVLDSDGSFFLVSKLTVDKSRWQQGNVFSCSVMHEALHNHYTQKSLSLSPGK
light: QLVLTQPPSVSGAPGQRVTISCTGSSSNIGAGYDVHWYQQLPGTAPKLLIYGNSNRPSGVPDRFSGSKSGTSASLAITGLQAEDEADYYCQSYDSSLSEEVFGGGTKLTVLGQPKANPTVTLFPPSSEELQANKATLVCLISDFYPGAVTVAWKADGSPVKAGVETTKPSKQSNNKYAASSYLSLTPEQWKSHRSYSCQVTHEGSTVEKTVAPTECS
chain: not shown
notes: Half-arm (monovalent) anti-human CSF1R antibody, three chains as BIM0542; Heavy chain entry ends in X = K or absent; also called multispecific molecule 74; aCSF1R BI117 G1-R2B half-arm antibody
B5: BIM0544 (antibody, human IgG1, lambda)
heavy: EVQLVESGGGLVQPGGSLRLSCAASGFTFSNDEMNWIRQAPGKGLEWVSYISSRSSTIYYADAVKGRFTISRDNARNSLYLQMNSLRAEDTAVYYCARNSDEDGSFDYWGQGTLVTVSSASTKGPSVFPLAPSSKSTSGGTAALGCLVKDYFPEPVTVSWNSGALTSGVHTFPAVLQSSGLYSLSSVVTVPSSSLGTQTYICNVNHKPSNTKVDKRVEPKSCDKTHTCPPCPAPELLGGPSVFLFPPKPKDTLMISRTPEVTCVVVDVSHEDPEVKFNWYVDGVEVHNAKTKPREEQYNSTYRVVSVLTVLHQDWLNGKEYKCKVSNKALPAPIEKTISKAKGQPREPQVCTLPPSREEMTKNQVSLSCAVKGFYPSDIAVEWESNGQPENNYKTTPPVLDSDGSFFLVSKLTVDKSRWQQGNVFSCSVMHEALHNHYTQKSLSLSPGK
light: QLVLTQPPSVSGAPGQRVTISCTGSSSNIGAGYDVHWYQQLPGTAPKLLIYGNSNRPSGVPDRFSGSKSGTSASLAITGLQAEDEADYYCQSYDSSLSEEVFGGGTKLTVLGQPKANPTVTLFPPSSEELQANKATLVCLISDFYPGAVTVAWKADGSPVKAGVETTKPSKQSNNKYAASSYLSLTPEQWKSHRSYSCQVTHEGSTVEKTVAPTECS
chain: not shown
notes: Half-arm (monovalent) anti-human CSF1R antibody, three chains as BIM0542; Heavy chain entry ends in X = K or absent; also called multispecific molecule 72; aCSF1R BI117 D1-R2A half-arm antibody
B6: BIM0545 (antibody, human IgG1, lambda)
heavy: EVQLVESGGGLVQPGGSLRLSCAASGFTFSNDEMNWIRQAPGKGLEWVSYITSKSSTIYYADSVKGRFTISRDNARNSLYLQMNSLRAEDTAVYYCARGVDGDFSFDYWGQGTLVTVSSASTKGPSVFPLAPSSKSTSGGTAALGCLVKDYFPEPVTVSWNSGALTSGVHTFPAVLQSSGLYSLSSVVTVPSSSLGTQTYICNVNHKPSNTKVDKRVEPKSCDKTHTCPPCPAPELLGGPSVFLFPPKPKDTLMISRTPEVTCVVVDVSHEDPEVKFNWYVDGVEVHNAKTKPREEQYNSTYRVVSVLTVLHQDWLNGKEYKCKVSNKALPAPIEKTISKAKGQPREPQVCTLPPSREEMTKNQVSLSCAVKGFYPSDIAVEWESNGQPENNYKTTPPVLDSDGSFFLVSKLTVDKSRWQQGNVFSCSVMHEALHNHYTQKSLSLSPGK
light: QLVLTQPPSVSGAPGQRVTISCTGSSSNIGAGYDVHWYQQLPGTAPKLLIYGNSNRPSGVPDRFSGSKSGTSASLAITGLQAEDEADYYCQSYDSSLSEEVFGGGTKLTVLGQPKANPTVTLFPPSSEELQANKATLVCLISDFYPGAVTVAWKADGSPVKAGVETTKPSKQSNNKYAASSYLSLTPEQWKSHRSYSCQVTHEGSTVEKTVAPTECS
chain: not shown
notes: Half-arm (monovalent) anti-human CSF1R antibody, three chains as BIM0542; Heavy chain entry ends in X = K or absent; also called multispecific molecule 73; aCSF1R BI117 E2-R2B half-arm antibody

How the values were obtained:
human CSF1R-Fc ECD = target: T1, human CSF1R-Fc ECD (human, UniProt P07333 20-517); assay: ELISA, plate coated with 2 µg/mL human CSF1R, monovalent antibody titrated, anti-human Fc HRP
T1 construct: extracellular domain; not shown: Fc part of the coated reagent, not described
T1 sequence (P07333 20-517): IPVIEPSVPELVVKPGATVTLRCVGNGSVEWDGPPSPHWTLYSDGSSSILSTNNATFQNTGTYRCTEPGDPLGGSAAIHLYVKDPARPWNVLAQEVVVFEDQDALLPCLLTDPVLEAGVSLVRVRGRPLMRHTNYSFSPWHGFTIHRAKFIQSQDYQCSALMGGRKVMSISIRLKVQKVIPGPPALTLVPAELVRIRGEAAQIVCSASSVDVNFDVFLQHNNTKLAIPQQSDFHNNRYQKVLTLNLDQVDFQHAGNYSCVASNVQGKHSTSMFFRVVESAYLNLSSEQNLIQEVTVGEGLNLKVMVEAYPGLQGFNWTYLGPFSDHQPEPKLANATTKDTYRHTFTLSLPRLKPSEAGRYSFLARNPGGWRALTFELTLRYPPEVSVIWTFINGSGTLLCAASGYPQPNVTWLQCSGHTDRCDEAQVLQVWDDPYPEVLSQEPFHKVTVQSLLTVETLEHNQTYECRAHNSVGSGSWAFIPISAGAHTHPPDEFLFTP
Procedure: Microplates were separately coated with 2 μg/mL of human or cyno CSF1R in 100 μL and blocked with 2% BSA. Serial dilutions of unlabeled monovalent human antibodies (11 points, 3-fold dilutions, 400 nM to […]) were transferred to the coated and blocked plates at 75 μL/well and incubated for 1 hr at room temperature. Plates were washed three times and incubated for 30 mins with anti-human Fc horseradish peroxidase conjugate followed by addition of TMB, a substrate of HRP. The plates were developed for 5 mins, stopped with 1M HCL and read at a wavelength of 450 nm.

human CSF1R = target: T2, human CSF1R (human, UniProt P07333 20-972); assay: flow cytometry on HEK-293T cells stably transduced with human CSF1R; anti-human Fc APC; percent APC positive
T2 construct: whole, on cells; also called hCSF1R
T2 sequence (P07333 20-972): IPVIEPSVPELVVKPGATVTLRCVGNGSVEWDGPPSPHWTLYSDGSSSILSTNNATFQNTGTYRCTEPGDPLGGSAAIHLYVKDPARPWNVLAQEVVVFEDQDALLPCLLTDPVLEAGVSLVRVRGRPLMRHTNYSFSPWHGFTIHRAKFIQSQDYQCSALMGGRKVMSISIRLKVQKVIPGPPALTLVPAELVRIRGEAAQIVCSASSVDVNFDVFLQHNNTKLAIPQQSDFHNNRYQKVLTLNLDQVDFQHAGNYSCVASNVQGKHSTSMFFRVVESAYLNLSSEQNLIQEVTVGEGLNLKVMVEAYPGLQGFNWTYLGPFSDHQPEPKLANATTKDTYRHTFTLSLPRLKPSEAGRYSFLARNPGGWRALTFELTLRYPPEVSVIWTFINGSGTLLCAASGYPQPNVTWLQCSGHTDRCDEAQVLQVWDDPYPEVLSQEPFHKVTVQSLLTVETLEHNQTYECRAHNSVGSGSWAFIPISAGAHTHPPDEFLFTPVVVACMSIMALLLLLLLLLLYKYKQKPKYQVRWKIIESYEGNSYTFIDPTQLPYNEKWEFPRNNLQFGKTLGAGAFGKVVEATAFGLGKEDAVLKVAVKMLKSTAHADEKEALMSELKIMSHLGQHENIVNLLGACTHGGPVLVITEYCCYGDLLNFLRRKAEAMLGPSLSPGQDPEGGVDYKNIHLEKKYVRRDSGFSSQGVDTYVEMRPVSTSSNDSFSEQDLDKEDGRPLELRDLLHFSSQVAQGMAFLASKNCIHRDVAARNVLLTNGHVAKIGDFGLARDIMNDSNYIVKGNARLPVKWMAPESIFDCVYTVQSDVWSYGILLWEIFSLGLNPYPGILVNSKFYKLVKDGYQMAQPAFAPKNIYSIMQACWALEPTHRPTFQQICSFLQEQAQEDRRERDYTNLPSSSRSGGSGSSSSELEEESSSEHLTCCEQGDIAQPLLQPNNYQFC
Procedure: HEK-293T cells were lentivirally transduced with human CSF1R and stable cell lines were generated. Nearly all transduced cells expressed high levels of CSF1R. Cells were washed with PBS containing 0.5% BSA and 0.1% sodium azide (staining buffer) and added to 96-well V-bottom plates with 100,000 cells/well. Human anti-CSF1R monovalent antibodies were added to the cells in 2.5 fold serial dilutions and incubated for 2 hour at room temperature. The plates were washed twice with staining buffer. The secondary antibody against human Fc conjugated to APC was added at 1:200 dilution (1.5 mg/ml stock) and incubated with the cells for 1 hour at 4° C. followed by washing with staining buffer. Cells were subsequently stained with a live/dead dye to exclude any dying cells and were fixed for 10 minutes with 4% paraformaldehyde at room temperature. The plates were read on CytoFLEX LS (Beckman Coulter). Data was calculated as the percent-APC positive population.

Binder | binding result (human CSF1R-Fc ECD) | binding result (human CSF1R)
B1 | binds | binds
B2 | binds | binds
B3 | binds | binds
B4 | binds | binds
B5 | binds | binds
B6 | binds | binds
